Measurements from patent publication US20260374873 (published 2026).

Assays:
human B7-H4 = target: T1, human B7-H4 (human, UniProt Q7Z7D3); assay: ELISA
T1 chain: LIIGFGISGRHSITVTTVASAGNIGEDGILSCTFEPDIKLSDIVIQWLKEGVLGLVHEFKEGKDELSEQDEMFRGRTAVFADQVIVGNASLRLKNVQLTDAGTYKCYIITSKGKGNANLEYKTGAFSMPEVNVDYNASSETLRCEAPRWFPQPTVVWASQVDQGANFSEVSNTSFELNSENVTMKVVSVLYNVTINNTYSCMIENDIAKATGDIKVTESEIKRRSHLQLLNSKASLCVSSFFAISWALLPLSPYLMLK

human B7-H1 = human B7-H1 (human, UniProt Q9NZQ7); assay: ELISA
human B7-2 = target: T2, human B7-2 (human, UniProt P42081); assay: ELISA
T2 chain: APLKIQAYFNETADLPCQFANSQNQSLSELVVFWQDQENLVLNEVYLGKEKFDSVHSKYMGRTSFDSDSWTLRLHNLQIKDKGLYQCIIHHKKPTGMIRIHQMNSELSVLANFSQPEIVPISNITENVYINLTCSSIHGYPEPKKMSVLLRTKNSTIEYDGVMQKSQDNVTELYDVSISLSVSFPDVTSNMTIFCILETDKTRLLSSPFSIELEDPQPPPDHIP

human B7-1 = target: T3, human B7-1 (human, UniProt P33681); assay: ELISA
T3 chain: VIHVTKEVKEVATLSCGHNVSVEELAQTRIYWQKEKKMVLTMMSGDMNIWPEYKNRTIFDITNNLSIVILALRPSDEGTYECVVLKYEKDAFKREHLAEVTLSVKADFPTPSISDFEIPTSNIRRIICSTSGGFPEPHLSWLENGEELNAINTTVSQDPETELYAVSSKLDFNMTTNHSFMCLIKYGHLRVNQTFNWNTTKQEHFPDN

rat B7-H3 on CHO-S = target: T4, rat B7-H3 on CHO-S (rat, UniProt Q7TPB4); assay: FACS
T4 chain: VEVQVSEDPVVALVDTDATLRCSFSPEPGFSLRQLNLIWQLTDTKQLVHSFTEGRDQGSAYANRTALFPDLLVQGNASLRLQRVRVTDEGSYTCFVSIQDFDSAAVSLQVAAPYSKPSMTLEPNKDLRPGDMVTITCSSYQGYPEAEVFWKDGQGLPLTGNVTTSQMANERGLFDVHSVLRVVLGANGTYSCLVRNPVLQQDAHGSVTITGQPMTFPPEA

rat B7-H3 = target: T5, rat B7-H3 (rat, UniProt Q7TPB4); assay: BLI
T5 chain: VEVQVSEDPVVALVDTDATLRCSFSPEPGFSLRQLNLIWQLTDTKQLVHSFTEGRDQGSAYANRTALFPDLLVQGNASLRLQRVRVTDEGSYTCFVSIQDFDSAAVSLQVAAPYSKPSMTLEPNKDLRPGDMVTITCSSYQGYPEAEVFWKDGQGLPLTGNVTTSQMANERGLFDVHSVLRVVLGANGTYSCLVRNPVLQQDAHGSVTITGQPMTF

human B7-H2 = target: T6, human B7-H2 (human, UniProt O75144); assay: ELISA
T6 chain: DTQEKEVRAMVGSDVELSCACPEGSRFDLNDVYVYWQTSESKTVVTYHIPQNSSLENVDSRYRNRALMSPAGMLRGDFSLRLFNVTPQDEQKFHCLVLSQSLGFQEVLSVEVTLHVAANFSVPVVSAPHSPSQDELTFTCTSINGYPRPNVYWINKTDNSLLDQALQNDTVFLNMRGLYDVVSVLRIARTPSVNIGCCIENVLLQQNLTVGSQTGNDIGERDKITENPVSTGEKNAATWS

Measured: binding result

Chain of human B7-H1 (Q9NZQ7 19-238): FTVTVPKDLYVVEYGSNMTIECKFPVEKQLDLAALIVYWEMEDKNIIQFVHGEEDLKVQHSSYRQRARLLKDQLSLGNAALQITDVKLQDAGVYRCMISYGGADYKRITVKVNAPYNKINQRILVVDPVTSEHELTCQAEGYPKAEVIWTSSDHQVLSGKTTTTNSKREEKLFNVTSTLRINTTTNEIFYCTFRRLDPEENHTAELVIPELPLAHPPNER

B1: 2#8890 (antibody, V domains shown)
VH: QVQLQESGPGLVQPSGTLSLTCAVSGGSDSSTNWWTWVRQSPGQGLEWIGEISPIGFTSYSPSLRSRVTISVDKSKTQFSLKLSSVTAADTAVYYCARDRLYFAFWGQGTLVTVSS
VL: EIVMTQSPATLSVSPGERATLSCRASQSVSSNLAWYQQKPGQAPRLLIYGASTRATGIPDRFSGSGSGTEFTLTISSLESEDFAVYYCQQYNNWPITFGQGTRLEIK
no binding: all assays above
